Here are results for four proteins from article doi:10.1101/2020.12.02.408906 (bioRxiv, 2020).

B1: MycP5 protease (mycosin) of the ESX-5 type VII secretion system of M. tuberculosis H37Rv (enzyme)
chain: ISPPTIDPGALPPDGPPGPLAPMKQNAYCTEVGVLPGTDFQLQPKYMEMLNLNEAWQFGRGDGVKVAVIDTGVTPHPRLPRLIPGGDYVMAGGDGLSDCDAHGTLVASMIAAVPANGAVPLPSVPRRPVTIPTTETPPPPQTVTLSPVPPQTVTVIPAPPPEEGVPPGAPVPGPEPPPAPGPQPPAVDRGGGTVTVPSYSGGRKIAPIDNPRNPHPSAPSPALGPPPDAFSGIAPGVEIISIRQSSQAFGLKDPYTGDEDPQTAQKIDNVETMARAIVHAANMGASVINISDVMCMSARNVIDQRALGAAVHYAAVDKDAVIVAAAGDGSKKDCKQNPIFDPLQPDDPRAWNAVTTVVTPSWFHDYVLTVGAVDANGQPLSKMSIAGPWVSISAPGTDVVGLSPRDDGLINAIDGPDNSLLVPAGTSFSAAIVSGVAALVRAKFPELSAYQIINRLIHTARPPARGVDNQVGYGVVDPVAALTWDVPKGPAEPPKQLSAPLVVPQPPAPRDMVPIWVAAGGLAGALLIGGAVFGTATLMRRSRKQQ
B2: EccD5 of the ESX-5 type VII secretion system of M. tuberculosis H37Rv (natural protein)
chain: MTAVADAPQADIEGVASPQAVVVGVMAGEGVQIGVLLDANAPVSVMTDPLLKVVNSRLRELGEAPLEATGRGRWALCLVDGAPLRATQSLTEQDVYDGDRLWIRFIADTERRSQVIEHISTAVASDLSKRFARIDPIVAVQVGASMVATGVVLATGVLGWWRWHHNTWLTTIYTAVIGVLVLAVAMLLLMRAKTDADRRVADIMLMSAIMPVTVAAAAAPPGPVGSPQAVLGFGVLTVAAALALRFTGRRLGIYTTIVIIGALTMLAALARMVAATSAVTLLSSLLLICVVAYHAAPALSRRLAGIRLPVFPSATSRWVFEARPDLPTTVVVSGGSAPVLEGPSSVRDVLLQAERARSFLSGLLTGLGVMVVVCMTSLCDPHTGQRWLPLILAGFTSGFLLLRGRSYVDRWQSITLAGTAVIIAAAVCVRYALELSSPLAVSIVAAILVLLPAAGMAAAAHVPHTIYSPLFRKFVEWIEYLCLMPIFPLALWLMNVYAAIRYR
B3: EccB5 of the ESX-5 type VII secretion system of M. tuberculosis H37Rv (natural protein)
chain: MAEESRGQRGSGYGLGLSTRTQVTGYQFLARRTAMALTRWRVRMEIEPGRRQTLAVVASVSAALVICLGALLWSFISPSGQLNESPIIADRDSGALYVRVGDRLYPALNLASARLITGRPDNPHLVRSSQIATMPRGPLVGIPGAPSSFSPKSPPASSWLVCDTVATSSSIGSLQGVTVTVIDGTPDLTGHRQILSGSDAVVLRYGGDAWVIREGRRSRIEPTNRAVLLPLGLTPEQVSQARPMSRALFDALPVGPELLVPEVPNAGGPATFPGAPGPIGTVIVTPQISGPQQYSLVLGDGVQTLPPLVAQILQNAGSAGNTKPLTVEPSTLAKMPVVNRLDLSAYPDNPLEVVDIREHPSTCWWWERTAGENRARVRVVSGPTIPVAATEMNKVVSLVKADTSGRQADQVYFGPDHANFVAVTGNNPGAQTSESLWWVTDAGARFGVEDSKEARDALGLTLTPSLAPWVALRLLPQGPTLSRADALVEHDTLPMDMTPAELVVPK
B4: EccC5 ATPase of the ESX-5 type VII secretion system of M. tuberculosis H37Rv (natural protein)
chain: MKRGFARPTPEKPPVIKPENIVLSTPLSIPPPEGKPWWLIVVGVVVVGLLGGMVAMVFASGSHVFGGIGSIFPLFMMVGIMMMMFRGMGGGQQQMSRPKLDAMRAQFMLMLDMLRETAQESADSMDANYRWFHPAPNTLAAAVGSPRMWERKPDGKDLNFGVVRVGVGMTRPEVTWGEPQNMPTDIELEPVTGKALQEFGRYQSVVYNLPKMVSLLVEPWYALVGEREQVLGLMRAIICQLAFSHGPDHVQMIVVSSDLDQWDWVKWLPHFGDSRRHDAAGNARMVYTSVREFAAEQAELFAGRGSFTPRHASSSAQTPTPHTVIIADVDDPQWEYVISAEGVDGVTFFDLTGSSMWTDIPERKLQFDKTGVIEALPRDRDTWMVIDDKAWFFALTDQVSIAEAEEFAQKLAQWRLAEAYEEIGQRVAHIGARDILSYYGIDDPGNIDFDSLWASRTDTMGRSRLRAPFGNRSDNGELLFLDMKSLDEGGDGPHGVMSGTTGSGKSTLVRTVIESLMLSHPPEELQFVLADLKGGSAVKPFAGVPHVSRIITDLEEDQALMERFLDALWGEIARRKAICDSAGVDDAKEYNSVRARMRARGQDMAPLPMLVVVIDEFYEWFRIMPTAVDVLDSIGRQGRAYWIHLMMASQTIESRAEKLMENMGYRLVLKARTAGAAQAAGVPNAVNLPAQAGLGYFRKSLEDIIRFQAEFLWRDYFQPGVSIDGEEAPALVHSIDYIRPQLFTNSFTPLEVSVGGPDIEPVVAQPNGEVLESDDIEGGEDEDEEGVRTPKVGTVIIDQLRKIKFEPYRLWQPPLTQPVAIDDLVNRFLGRPWHKEYGSACNLVFPIGIIDRPYKHDQPPWTVDTSGPGANVLILGAGGSGKTTALQTLICSAALTHTPQQVQFYCLAYSSTALTTVSRIPHVGEVAGPTDPYGVRRTVAELLALVRERKRSFLECGIASMEMFRRRKFGGEAGPVPDDGFGDVYLVIDNYRALAEENEVLIEQVNVIINQGPSFGVHVVVTADRESELRPPVRSGFGSRIELRLAAVEDAKLVRSRFAKDVPVKPGRGMVAVNYVRLDSDPQAGLHTLVARPALGSTPDNVFECDSVVAAVSRLTSAQAPPVRRLPARFGVEQVRELASRDTRQGVGAGGIAWAISELDLAPVYLNFAENSHLMVTGRRECGRTTTLATIMSEIGRLYAPGASSAPPPAPGRPSAQVWLVDPRRQLLTALGSDYVERFAYNLDGVVAMMGELAAALAGREPPPGLSAEELLSRSWWSGPEIFLIVDDIQQLPPGFDSPLHKAVPFVNRAADVGLHVIVTRTFGGWSSAGSDPMLRALHQANAPLLVMDADPDEGFIRGKMKGGPLPRGRGLLMAEDTGVFVQVAATEVRR

The series deals with the molecule itself. Kind of series: cryo-EM structure.
Broadly, the stoichiometry N is a count of units in the complex or per binding partner. For the protein B1, the “stoichiometry N” value turned out to be 3.

On to B2, for which the “stoichiometry N” value amounted to 2.

In the case of B3, the “stoichiometry N” value was determined as 6.

Regarding B4, the “stoichiometry N” value amounted to 2.
